Drawing on US20230125301A1 (published 2023), this text covers EC50 for 13 molecules.

B1: CLDN18L-G12-pdl1a (bispecific antibody)
heavy: not shown
light: DIVMTQSPLSLPVTPGEPASISCKSSQTLLNSGNQKNYLTWYLQKPGQSPQLLIYWASTGESGVPDRFSGSGSGTDFTLKISRVEAEDVGVYYCQNAYFYPFTFGGGTKVEIKRTVAAPSVFIFPPSDEQLKSGTASVVCLLNNFYPREAKVQWKVDNALQSGNSQESVTEQDSKDSTYSLSSTLTLSKADYEKHKVYACEVTHQGLSSPVTKSFNRGECGGGGSGGGGSGSEVQLVESGGGLVQPGGSLRLSCAASGRTFVTYGMGWFRQAPGKGREFVSAISWSGSMTSYGDSVKGRFTISRDNAKNTLYLQMNSLRPEDTAVYYCAAALGAVVYTTREPYTYWGQGTLVTVSS
B2: pdl1a-E-CLDN18H (bispecific antibody)
heavy: not shown
light: DIVMTQSPLSLPVTPGEPASISCKSSQTLLNSGNQKNYLTWYLQKPGQSPQLLIYWASTGESGVPDRFSGSGSGTDFTLKISRVEAEDVGVYYCQNAYFYPFTFGGGTKVEIKRTVAAPSVFIFPPSDEQLKSGTASVVCLLNNFYPREAKVQWKVDNALQSGNSQESVTEQDSKDSTYSLSSTLTLSKADYEKHKVYACEVTHQGLSSPVTKSFNRGEC
B3: CLDN18H-G12-pdl1a (bispecific antibody)
heavy: not shown
light: DIVMTQSPLSLPVTPGEPASISCKSSQTLLNSGNQKNYLTWYLQKPGQSPQLLIYWASTGESGVPDRFSGSGSGTDFTLKISRVEAEDVGVYYCQNAYFYPFTFGGGTKVEIKRTVAAPSVFIFPPSDEQLKSGTASVVCLLNNFYPREAKVQWKVDNALQSGNSQESVTEQDSKDSTYSLSSTLTLSKADYEKHKVYACEVTHQGLSSPVTKSFNRGEC
B4: CLDN18H-G15-pdl1a (bispecific antibody)
heavy: not shown
light: DIVMTQSPLSLPVTPGEPASISCKSSQTLLNSGNQKNYLTWYLQKPGQSPQLLIYWASTGESGVPDRFSGSGSGTDFTLKISRVEAEDVGVYYCQNAYFYPFTFGGGTKVEIKRTVAAPSVFIFPPSDEQLKSGTASVVCLLNNFYPREAKVQWKVDNALQSGNSQESVTEQDSKDSTYSLSSTLTLSKADYEKHKVYACEVTHQGLSSPVTKSFNRGEC
B5: pdl1a-G12-CLDN18H (bispecific antibody)
heavy: not shown
light: DIVMTQSPLSLPVTPGEPASISCKSSQTLLNSGNQKNYLTWYLQKPGQSPQLLIYWASTGESGVPDRFSGSGSGTDFTLKISRVEAEDVGVYYCQNAYFYPFTFGGGTKVEIKRTVAAPSVFIFPPSDEQLKSGTASVVCLLNNFYPREAKVQWKVDNALQSGNSQESVTEQDSKDSTYSLSSTLTLSKADYEKHKVYACEVTHQGLSSPVTKSFNRGEC
B6: CLDN18H-G9-pdl1a (bispecific antibody)
heavy: not shown
light: DIVMTQSPLSLPVTPGEPASISCKSSQTLLNSGNQKNYLTWYLQKPGQSPQLLIYWASTGESGVPDRFSGSGSGTDFTLKISRVEAEDVGVYYCQNAYFYPFTFGGGTKVEIKRTVAAPSVFIFPPSDEQLKSGTASVVCLLNNFYPREAKVQWKVDNALQSGNSQESVTEQDSKDSTYSLSSTLTLSKADYEKHKVYACEVTHQGLSSPVTKSFNRGEC
B7: pdl1a-G15-CLDN18H (bispecific antibody)
heavy: not shown
light: DIVMTQSPLSLPVTPGEPASISCKSSQTLLNSGNQKNYLTWYLQKPGQSPQLLIYWASTGESGVPDRFSGSGSGTDFTLKISRVEAEDVGVYYCQNAYFYPFTFGGGTKVEIKRTVAAPSVFIFPPSDEQLKSGTASVVCLLNNFYPREAKVQWKVDNALQSGNSQESVTEQDSKDSTYSLSSTLTLSKADYEKHKVYACEVTHQGLSSPVTKSFNRGEC
B8: pdl1a-G15-CLDN18L (bispecific antibody)
heavy: not shown
light: EVQLVESGGGLVQPGGSLRLSCAASGRTFVTYGMGWFRQAPGKGREFVSAISWSGSMTSYGDSVKGRFTISRDNAKNTLYLQMNSLRPEDTAVYYCAAALGAVVYTTREPYTYWGQGTLVTVSSGGGGSGGGGSGGGGSDIVMTQSPLSLPVTPGEPASISCKSSQTLLNSGNQKNYLTWYLQKPGQSPQLLIYWASTGESGVPDRFSGSGSGTDFTLKISRVEAEDVGVYYCQNAYFYPFTFGGGTKVEIKRTVAAPSVFIFPPSDEQLKSGTASVVCLLNNFYPREAKVQWKVDNALQSGNSQESVTEQDSKDSTYSLSSTLTLSKADYEKHKVYACEVTHQGLSSPVTKSFNRGEC
B9: pdl1a-G12-CLDN18L (bispecific antibody)
heavy: not shown
light: EVQLVESGGGLVQPGGSLRLSCAASGRTFVTYGMGWFRQAPGKGREFVSAISWSGSMTSYGDSVKGRFTISRDNAKNTLYLQMNSLRPEDTAVYYCAAALGAVVYTTREPYTYWGQGTLVTVSSGGGGSGGGGSGSDIVMTQSPLSLPVTPGEPASISCKSSQTLLNSGNQKNYLTWYLQKPGQSPQLLIYWASTGESGVPDRFSGSGSGTDFTLKISRVEAEDVGVYYCQNAYFYPFTFGGGTKVEIKRTVAAPSVFIFPPSDEQLKSGTASVVCLLNNFYPREAKVQWKVDNALQSGNSQESVTEQDSKDSTYSLSSTLTLSKADYEKHKVYACEVTHQGLSSPVTKSFNRGEC
B10: CLDN18H-E-pdl1b (bispecific antibody)
heavy: not shown
light: DIVMTQSPLSLPVTPGEPASISCKSSQTLLNSGNQKNYLTWYLQKPGQSPQLLIYWASTGESGVPDRFSGSGSGTDFTLKISRVEAEDVGVYYCQNAYFYPFTFGGGTKVEIKRTVAAPSVFIFPPSDEQLKSGTASVVCLLNNFYPREAKVQWKVDNALQSGNSQESVTEQDSKDSTYSLSSTLTLSKADYEKHKVYACEVTHQGLSSPVTKSFNRGEC
B11: CLDN18H-E-pdl1a (bispecific antibody)
heavy: not shown
light: DIVMTQSPLSLPVTPGEPASISCKSSQTLLNSGNQKNYLTWYLQKPGQSPQLLIYWASTGESGVPDRFSGSGSGTDFTLKISRVEAEDVGVYYCQNAYFYPFTFGGGTKVEIKRTVAAPSVFIFPPSDEQLKSGTASVVCLLNNFYPREAKVQWKVDNALQSGNSQESVTEQDSKDSTYSLSSTLTLSKADYEKHKVYACEVTHQGLSSPVTKSFNRGEC
B12: CLDN18H-E-pdl1c (bispecific antibody)
heavy: not shown
light: DIVMTQSPLSLPVTPGEPASISCKSSQTLLNSGNQKNYLTWYLQKPGQSPQLLIYWASTGESGVPDRFSGSGSGTDFTLKISRVEAEDVGVYYCQNAYFYPFTFGGGTKVEIKRTVAAPSVFIFPPSDEQLKSGTASVVCLLNNFYPREAKVQWKVDNALQSGNSQESVTEQDSKDSTYSLSSTLTLSKADYEKHKVYACEVTHQGLSSPVTKSFNRGEC
B13: CLDN18L-E-pdl1b (bispecific antibody)
heavy: not shown
light: DIVMTQSPLSLPVTPGEPASISCKSSQTLLNSGNQKNYLTWYLQKPGQSPQLLIYWASTGESGVPDRFSGSGSGTDFTLKISRVEAEDVGVYYCQNAYFYPFTFGGGTKVEIKRTVAAPSVFIFPPSDEQLKSGTASVVCLLNNFYPREAKVQWKVDNALQSGNSQESVTEQDSKDSTYSLSSTLTLSKADYEKHKVYACEVTHQGLSSPVTKSFNRGECEPKSSDKTHTSPPSPEVQLVESGGGLVQPGGSLRLSCAASGRTFVTYGMGWFRQAPGKGREFVSAISWSGSSTSYGDSVKGRFTISRDNAKNTLYLQMNSLRPEDTAVYYCAAALGAVVYTTREPYTYWGQGTLVTVSS

T1 sequence (Q9NZQ7 19-290): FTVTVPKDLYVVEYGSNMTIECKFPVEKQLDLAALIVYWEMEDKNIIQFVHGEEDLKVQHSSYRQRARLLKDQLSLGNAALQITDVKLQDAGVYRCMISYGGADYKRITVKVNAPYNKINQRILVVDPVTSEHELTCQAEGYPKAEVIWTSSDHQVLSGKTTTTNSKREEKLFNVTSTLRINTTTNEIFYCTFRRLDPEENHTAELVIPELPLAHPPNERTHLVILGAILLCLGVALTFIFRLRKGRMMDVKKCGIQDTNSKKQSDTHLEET

One test concerns the target T1, human PD-L1 (human, UniProt Q9NZQ7 19-290). Nature of the test: FACS binding, CHO-K1 cells.
For the molecule B1, the EC50 worked out at 0.808 nM.
For the molecule B2, the concentration giving a half-maximal response (EC50) came to 0.143 nM.
Same read-out and setting: the value for B3 was 0.281 nM; that for B4 was 0.219 nM.
Still for that read-out and setting: with B5 the figure was 0.0989 nM; with B6, 0.111 nM; with B7, 0.134 nM.
Still for that read-out and setting: with B8 the figure was 0.147 nM.
Regarding B9, the concentration for a half-maximal effect (EC50) came to 0.0898 nM.

The target of the next test is T1, human PD-L1. In words: FACS binding, CHO-K1 cells. The source holds these as a separate data set.
Consider B10, for which a half-maximal response (EC50) required 0.296 nM.
The same measure, in the same setting: the value for B2 was 0.0745 nM; that for B4 was 0.525 nM.
Molecule B11 displayed a concentration for a half-maximal effect (EC50) of 1.46 nM.
B12: a half-maximal response (EC50) required 0.317 nM.
In the case of B13, a half-maximal response (EC50) required 0.516 nM.
